# Data reported in US8008452B2, “Phosphorylated Ndr kinase” (Novartis Forschungesstiftung, Zweigniederlassung Friedrich …, priority 2002, dated 2011).
# B1: S100B: bovine S100B, EF-hand Ca2+-binding protein, added with 1 mM CaCl2 (protein)
# chain: SELEKAVVALIDVFHQYSGREGDKHKLKKSELKELINNELSHFLEEIKEQEVVDKVMETLDSDGDGECDFQEFMAFVAMITTACHEFFEHE
# B2: hMOB1: human MOB1 (GI: 11691898, SEQ ID NO:5), myc-tagged, cotransfected with HA-NDR1 (protein)
# chain: MSFLFSSRSSKTFKPKKNIPEGSHQYELLKHAEATLGSGNLRQAVMLPEGEDLNEWIAVNTVDFFNQINMLYGTITEFCTEASCPVMSAGPRYEYHWADGTNIKKPIKCSAPKYIDYLMTWVQDQLDDETLFPSKIGVPFPKNFMSVAKTILKRLFRVYAHIYHQHFDSVMQLQEEAHLNTSFKHFIFFVQEFNLIDRRELAPLQELIEKLGSKDR
# modifications: left off: small tags and cut ends
# B3: GST-hMOB1: GST fusion of hMOB1 added to HA-NDR kinase reactions (protein)
# chain: B2 chain
# modifications: left off: a dimerising Fc or GST
# notes: GST fusion of hMOB1 added to HA-NDR kinase reactions
# Assays:
# GST-NDR1 [1] = target: T1, GST-NDR1 (Homo sapiens, UniProt Q15208); experiment: GST-NDR1 in vitro autophosphorylation, incorporated 32P by Cerenkov counting; format: biochemical; settings: on both Ser281 and Thr444
# T1 construct: made in house; host or cells: E. coli BL21-DE3-pRep4
# Experimental: BL21-DE3-pRep4 E. coli strain was transformed with the pGEX-2T_NDR1 wild type or mutant plasmids. BL21-DE3 is a protease-deficient E. coli strain and pRep4 is a Laclq repressor-bearing plasmid both available commercially. Optionally, if desired, an E. coli strain comprising GroESL can be used, which expresses a chaperone protein that stabilizes the kinase. Mid-logarithmic phase cells were induced with 0.5 mM isopropyl beta-D-thiogalactopyranoside (IPTG) for 4 hours at 30° C. Bacteria were lysed using a French press in the presence of 1 mg/ml lysosyme, and the fusion proteins were purified on glutathione-agarose (Amersham Pharmacia Biotech) as described by the manufacturers. Recombinant proteins were assayed for kinase activity as described below and autophosphorylation was determined after SDS-PAGE separation either by Cerenkov counting or by exposure to a PhosphorImager screen followed by analysis with ImageQuant software (Molecular Dynamics).
# In brief, 1 microgram of purified GST-NDR1 (in solution ˜0.5 microM) wild type, kinase dead (K118A), and alanine mutants of phosphorylation residues Thr74, Ser281, and Thr444 were autophosphorylated for 2 hours in vitro without further additions or in the presence of 1 mM CaCl2 and 10 microM bovine S100B. Proteins were visualized on SDS gels using Coomassie Blue R-350 stained SDS-PAGE gel, and [gamma-^32P]ATP-labelled proteins were visualized by autoradiography of the gels developed on a Phosphorimager screen. The amount of incorporated ^32P was quantified by Cerenkov counting.
# Target sequence in this assay (Q15208 2-465): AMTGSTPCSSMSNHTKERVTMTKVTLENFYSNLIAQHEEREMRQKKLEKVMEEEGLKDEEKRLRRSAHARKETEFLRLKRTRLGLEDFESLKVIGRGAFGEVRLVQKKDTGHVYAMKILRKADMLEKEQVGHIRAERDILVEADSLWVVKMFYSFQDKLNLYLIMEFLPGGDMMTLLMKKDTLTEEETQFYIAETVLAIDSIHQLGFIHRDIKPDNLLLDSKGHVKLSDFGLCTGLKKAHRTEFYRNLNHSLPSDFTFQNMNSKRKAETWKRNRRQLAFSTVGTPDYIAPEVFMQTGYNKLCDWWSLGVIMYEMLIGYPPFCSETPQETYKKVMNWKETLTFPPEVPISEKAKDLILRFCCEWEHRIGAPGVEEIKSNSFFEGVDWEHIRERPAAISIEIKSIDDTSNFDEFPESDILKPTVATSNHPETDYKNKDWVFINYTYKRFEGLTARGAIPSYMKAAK
# GST-NDR1 [2] = target: T1, GST-NDR1; experiment: GST-NDR1 kinase assay (peptide kinase assay); format: biochemical
# Experimental: 1 microgram of purified recombinant GST-NDR1 wild type and mutants (without further treatment or autophosphorylated for 2 h in the presence or absence of 1 mM CaCl2 and […] (Sigma)) were assayed in 20 microliter of reaction mixture containing 20 mM Tris-HCl pH 7.5, 10 mM MgCl2, 1 mM DTT, 100 microM [gamma-^32P]ATP (˜0.5 microCi/microliter), and 1 mM NDR1 substrate peptide ([…]; SEQ ID NO:22). After 30 mins incubation at 30° C., reactions were stopped with 50 mM EDTA, and 10 microliters of reaction mixture were spotted onto 2 cm^2 squares of P81 phosphocellulose paper (Whatman). These were subsequently washed for 4×5 min and 3×20 min in 1% phosphoric acid and once in acetone before counting in a liquid scintillation counter. One unit of NDR1 activity was defined as the amount which catalyses the phosphorylation of 1 nmol peptide substrate in 1 min.
# Specific activity of GST-NDR1 mutants was also measured by a peptide kinase assay as described above. For this purpose, 1 microgram of purified GST-NDR1 wild type and alanine mutants were left without further treatment or autophosphorylated for 2 h in the presence or absence of 1 mM CaCl2 and […].
# Target sequence in this assay (Q15208 whole entry): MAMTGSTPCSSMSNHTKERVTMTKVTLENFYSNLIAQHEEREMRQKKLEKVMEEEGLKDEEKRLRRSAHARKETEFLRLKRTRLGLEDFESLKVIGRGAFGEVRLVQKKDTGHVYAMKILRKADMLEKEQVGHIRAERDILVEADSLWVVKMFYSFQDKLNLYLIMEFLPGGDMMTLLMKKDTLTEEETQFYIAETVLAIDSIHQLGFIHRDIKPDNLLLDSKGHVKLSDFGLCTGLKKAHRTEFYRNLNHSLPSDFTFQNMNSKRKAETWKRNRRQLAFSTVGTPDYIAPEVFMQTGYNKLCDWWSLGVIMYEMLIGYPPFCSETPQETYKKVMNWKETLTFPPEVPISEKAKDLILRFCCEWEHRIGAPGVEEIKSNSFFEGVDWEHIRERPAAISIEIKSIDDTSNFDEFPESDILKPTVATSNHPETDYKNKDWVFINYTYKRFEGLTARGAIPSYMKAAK
# NDR2 [3] = target: T2, NDR2 (Homo sapiens, UniProt Q9Y2H1); experiment: NDR2 specific kinase activity in vitro with Ca2+/S100B; format: biochemical; settings: concentration dependent
# T2 construct: made in house; host or cells: E. coli (inferred from b139 and b74)
# Experimental: (§1) All other procedures (including bacterial expression, kinase assays, immunodetection and mass spectrometry) were carried out essentially as described in the Methodology section above.
# (§2) The sequence conservation between NDR1 and NDR2 also encompasses the previously defined S100 binding domain of NDR1. Therefore, the in vitro effect of Ca2+/S100B on NDR2 activity was measured in a time and concentration dependent manner. Ca2+/S100B increases the rate of NDR2 autophosphorylation by ˜2-fold after 4 hours of incubation, as measured by mass spectrometry anlaysis, and it stimulates the specific NDR activity in a concentration dependent manner up to ˜4-fold. […] After in vitro incubation of GST-NDR2 in the presence and absence of Ca2+/S100B, the proteins were digested with trypsin, and the resultant mixture was analysed by ESI-MS-MS in a −79 precursor scan, measuring the mass charge ratio (m/z) of all peptide species that liberate a single phosphate group after fragmentation. The identity of 5 NDR2 derived phosphopeptides could be determined in both samples, the GST-NDR2 and the GST-NDR2/Ca2+/S100B.
# NDR2 [4] = target: T2, NDR2; experiment: GST-NDR2 in vitro autophosphorylation with Ca2+/S100B; format: biochemical; settings: after 4 hours of incubation
# Experimental: as §1, §2
# GST-NDR1 [5] = experiment: Immunodetection of GST-NDR1 phosphorylated on Ser281 or Thr444 after in vitro autophosphorylation; format: biochemical, human; settings: in vitro autophosphorylation with or without Ca2+/S100B
# Experimental: Either 1 microgram GST-NDR1 or HA-NDR1 immunoprecipitated from 100 microgram COS-1 detergent extracts as described above was separated on 10% SDS-PAGE and immunoblotted 2 h at RT or overnight at 4° C. with anti-Ser281P antisera (1:1000) in the presence of 50 microg/ml competing unphosphopeptide or anti-Thr444P purified antibody (1:500). Both antibodies were detected with horseradish peroxidase-conjugated donkey anti-rabbit Ig antibody (Amersham biosciences) and developed by ECL (chemiluminescence; Amersham Pharmacia Biotech).
# To reliably quantify the effect of S100B on NDR1 phosphorylation status, rabbit polyclonal antibodies were raised against phosphoepitopes comprising Ser281 or Thr444. GST-NDR1 mutants were treated essentially as described in Example 2 and detected either with anti-NDR1_C-term antiserum or polyclonal antibodies recognising NDR1 phosphorylated on Ser281 or Thr444.
# HA-NDR1 = HA-NDR1 kinase assay on 12CA5 immunoprecipitates from transfected, treated COS-1 cells; format: cell-based, human; settings: COS1 cells cotransfected with HA-NDR1, treated with OA; versus empty vector
# Experimental: In some experiments, the cells were treated for 60 min with 1 microM okadaic acid in 0.1% N,N-dimethylformamide (DMF) (Alexis Corp.), 50 microM BAPTA-AM (1,2-bis (o-aminophenoxy) ethane-N,N,N′,N′-tetraacetic acid tetra (acetoxy-methyl)ester) in 0.1% diimethylsulfoxide (DMSO; Sigma), or 20 microM thapsigargin in 0.1% DMSO (Alomone) 24 hours after transfection.
# Transfected and treated COS-1 cells were washed once with ice-cold PBS, and harvested by rubber policeman in 1 ml ice-cold PBS containing 1 mM Na3VO4 and 20 mM beta-glycerophosphate before lysis in 500 microliters of IP buffer (20 mM Tris-HCl pH 8.0, 150 mM NaCl, 1% Nonidet P-40, 10% glycerol, 1 mM Na3VO4, 20 mM beta-glycerolphosphate, 1 microM microcystin-LR, 50 mM NaF, 0.5 mM PMSF, 4 microM leupeptin, 1 mM benzamidine, and 1 tablet/10 ml IP of Complete protease inhibitors (Roche)). Lysates were centrifuged at 20 000 g for 20 min and triplicate aliquots (200 microg) of supernatant were precleared with protein A-Sepharose (Amersham Pharmacia Biotech) for 60 min and mixed subsequently for 3 h at 4° C. with 12CA5 antibody prebound to protein A-Sepharose (˜1 microg antibody bound to 2 microl beads). The beads were then washed twice with IP buffer, once for 10 min with IP buffer containing 1 M NaCl, once again for 10 min with IP buffer, and finally twice with 20 mM Tris-HCl pH 7.5 containing 4 microM leupeptin and 1 mM benzamidine. […] After 60 min incubation at 30° C., 15 microliters of supernatant were removed, and phosphate incorporation into the substrate peptide determined as described for GST-NDR1 above. […]
# To test whether hMOB1 plays a role in NDR activation, myc-hMOB1 or the empty vector was cotransfected with HA-NDR1 in COS1 cells and treated with OA. […] The reactions were resolved on a 10% SDS PAGE and the radioactivity visualised by using a phosphoimager.
# HA-NDR = target: T3, HA-NDR (Homo sapiens, UniProt Q15208); experiment: Autophosphorylation of immunoprecipitated HA-NDR with added GST-MOB or GST; format: biochemical; settings: added to HA-NDR kinase reactions; GST as control
# T3 construct: expressed in transfected cells; host or cells: COS-1 (HA-NDR1)
# Experimental: To test whether hMOB1 plays a role in NDR activation, myc-hMOB1 or the empty vector was cotransfected with HA-NDR1 in COS1 cells and treated with OA. 12CA5 immunoprecipitates were then assayed using the peptide kinase assay for HA-NDR kinase activity. […] GST-MOB and GST respectively was added to immunoprecipitated HA-NDR and kinase reaction were performed. The reactions were resolved on a 10% SDS PAGE and the radioactivity visualised by using a phosphoimager.
# T2 sequence (Q9Y2H1 whole entry, one chain of several): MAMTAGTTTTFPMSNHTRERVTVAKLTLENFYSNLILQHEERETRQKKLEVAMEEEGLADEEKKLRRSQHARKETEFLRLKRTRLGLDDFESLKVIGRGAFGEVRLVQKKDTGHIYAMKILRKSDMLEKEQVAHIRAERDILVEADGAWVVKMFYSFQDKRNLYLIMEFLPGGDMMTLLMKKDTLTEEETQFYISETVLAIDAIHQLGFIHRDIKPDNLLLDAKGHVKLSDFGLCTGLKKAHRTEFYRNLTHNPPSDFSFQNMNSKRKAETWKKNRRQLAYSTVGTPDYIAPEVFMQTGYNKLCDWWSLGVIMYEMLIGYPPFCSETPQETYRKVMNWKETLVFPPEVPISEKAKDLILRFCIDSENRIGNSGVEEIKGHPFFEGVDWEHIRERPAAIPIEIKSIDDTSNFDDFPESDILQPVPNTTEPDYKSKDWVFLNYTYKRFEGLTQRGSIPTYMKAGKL
# T3 sequence (Q15208 whole entry, one chain of several): as the sequence (Q15208 whole entry) above
molecule,measurement,setting,value
B1,increase in autophosphorylation of wild-type GST-NDR1 on addition of S100B,GST-NDR1 [1],~2 fold
same,increase in kinase activity of wild-type GST-NDR1 on addition of S100B,GST-NDR1 [2],~5 fold
same,stimulation of specific NDR activity (NDR2),NDR2 [3],~4 fold
same,increase of the rate of NDR2 autophosphorylation,NDR2 [4],~2 fold
same,phosphorylation of GST-NDR1 on Ser281 and Thr444 (phosphospecific antibodies),GST-NDR1 [5],enhance phosphorylation on both Ser281 and Thr444
B2,stimulation of OA stimulated NDR kinase activity by cotransfected myc-hMOB1,HA-NDR1,two to threefold stimulation
B3,effect on NDR autophosphorylation activity,HA-NDR,stimulated NDR autophosphorylation activity
